Here are results for 1 molecule from patent US20180021429A1, “ANTICANCER AGENTS OR ANTIMETASTATIC AGENTS USING FSTL1 AND COMBINATION DRUG THEREOF” (PHARMA FOODS INTERNATIONAL CO., LTD., priority 2015, published 2018).

Entries after “also recorded” stand apart in the source; their conditions may differ.

The subject of assay [1] is human peripheral blood cells. The experiment in a line: Treg induction inhibition using human peripheral blood cells stimulated with FSTL1 (Example 25). It counts as cell-based. As to conditions: FSTL1 5 ng/ml, antibody 5 μg/mL, 3 days; FIG. 113. On the procedure: Human peripheral blood cells (1×10^6 cells) were stimulated using FSTL1 (5 ng/ml), supplemented with the antibody (5 μg/mL), and cultured for 3 days. The percentage of a Foxp3^+CTLA4^+ cell fraction (Exp. 1) or a CD4^+Foxp3^+CTLA4^+ cell fraction (Exp. 2) in CD4^+ T cells was analyzed as Treg cells by flow cytometry. The flow cytometry conditions are as follows.
Blood was collected from a healthy person by the addition of a 1/10 amount of 4% sodium citrate, then layered on Ficoll (specific gravity: 1.090), and centrifuged (1500 rpm, 20 min, room temperature), and a cell fraction present in an intermediate layer was used as “PBMCs”. The antibody (5 μg/mL) was added to a system in which these PBMCs (1×10^6 cells) were cultured for 3 days under stimulation with FSTL1 (5 ng/ml) in a 24-well plate. PBMCs recovered from the culture system were incubated at 4° C. for 1 hour using an anti-CD4 antibody (BD Pharmingen/Becton, Dickinson and Company), an anti-CD25 antibody (BD Pharmingen/Becton, Dickinson and Company), and an anti-FoxP3 antibody (eBioscience). Then, the percentage of a Foxp3+CTLA4+ cell fraction (Exp. 1) or a CD4^+Foxp3^+CTLA4^+ cell fraction (Exp. 2) in CD4^+ T cells contained therein was analyzed as Treg cells using a flow cytometer FACScan (Becton, Dickinson and Company). […]

The next assay concerns the target T1, FSTL1 (Homo sapiens, UniProt Q12841).
T1 sequence (Q12841 21-308): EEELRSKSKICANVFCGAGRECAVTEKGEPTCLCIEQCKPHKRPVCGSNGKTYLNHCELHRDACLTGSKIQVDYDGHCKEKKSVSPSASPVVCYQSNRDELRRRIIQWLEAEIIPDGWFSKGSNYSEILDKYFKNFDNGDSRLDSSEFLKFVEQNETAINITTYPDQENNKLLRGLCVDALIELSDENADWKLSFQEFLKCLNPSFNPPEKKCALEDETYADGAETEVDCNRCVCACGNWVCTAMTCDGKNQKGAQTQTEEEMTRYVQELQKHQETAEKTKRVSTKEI
The experiment in a line: Ability of FSTL1-induced MSCs from mouse bone marrow cells to differentiate into adipocytes (Examples 14, 16). The class given is cell-based. Set-up: purchased R&D Systems, Inc. 1694-FN-050. To be noted: Example 16; antibody doses as in Example 15. On the procedure: The antibody clone (#6-55, #7, […], #13, or #22) was evaluated for its activity by the same testing method as in Example 13. #6-55 was set as a positive control for activity. […] Mouse bone marrow cells were supplemented with FSTL1 and the predetermined concentration of each antibody and cultured for 8 days. 5×10^4 cells/well were separated from each culture system and evaluated for the ability to differentiate into adipocytes using an adipocyte differentiation reagent included in “Mesenchymal Stem Cell Functional Identification Kit (R&D Systems, Inc., Cat. No. SCO10)”. For the evaluation method, the cells were supplemented with the adipocyte differentiation reagent and cultured for 8 days. Then, adipocytes per culture system were counted under a microscope for evaluation. […]
In the same way as in Example 15, mouse bone marrow cells were supplemented with FSTL1 and the predetermined concentration of each antibody and cultured for 8 days. 5×10^4 cells/well were separated from each culture system and evaluated for the ability to differentiate into adipocytes using an adipocyte differentiation reagent included in “Mesenchymal Stem Cell Functional Identification Kit (R&D Systems, Inc., Cat. No. SC010)”. […] Then, adipocytes per culture system were counted under a microscope for evaluation (FIG. 40B). […]

The subject of another assay is mouse melanoma B16-F10. Nature of the assay: In vivo, mouse melanoma B16-F10 (Example 22). The method, then: The drug efficacy of the anti-FSTL1 antibody was evaluated according to Examples 17 to 20 using other cancer-bearing models of C57BL/6 mice of the same strain as in Snail-positive tumor bone metastasis models. The “mouse melanoma B16-F10” is a parent line of the cell line forced to express Snail, which was transplanted in the bone metastasis models used in the preceding tests.
1. Experiment Group (n=5) • 1. Mouse melanoma B16-F10+control IgG (anti-DNP mAb) • 2. Mouse melanoma B16-F10+anti-FSTL1 mAb (#6-55)
• Day 0: transplantation of tumor cells (1×10^6 cells subcutaneously & 1×10^6 cells intravenously) • Day 3: intraperitoneal administration of the antibody (first dose, corresponding to 200 μg/mouse=10 mg/kg) • Day 6: intraperitoneal administration of the antibody (second dose, corresponding to 200 μg/mouse=10 mg/kg) • Day 15 various immunological assays
• Effects on the growth of subcutaneous tumor (calculation of tumor volume by tumor size measurement): measured 6, 10, and 14 days after tumor implantation (FIG. 46A) • Effects on weight loss (FIG. 46B)
• Effects on the growth of subcutaneous tumor (calculation of tumor volume by tumor size measurement): measured 6, 10, and 14 days after tumor implantation (FIG. 78A) • Effects on weight loss (FIG. 78B)

B1: #6-55: chicken-mouse chimeric anti-FSTL1 antibody clone; variable regions SEQ ID NO: 783 (light), 785 (heavy) (antibody, V domains shown)
VH: AVTLDESGGGLQTPGGALSLVCKGSGFTFTSVTMQWVRQAPGKGLEWVASVCSGSSTYYAPAVKGRATISRDNGQSTVRLQLSNLRPEDTGTYYCAKIAGRARWSCTSAAYNIDAWGHGTEVIVSS
VL: ASTQPSSVSAIPGETVKITCSGGGNNYGWYQQRSPGSAPVTVIYYNDNRPSNIPSRFSGSTSGSTSTLTITGVQADDEAIYYCGSWDSNTDSGIFGAGTTLTVL
modifications: mouse constant regions
As for B1, the “Treg induction caused by FSTL1 (Foxp3+CTLA4+ fraction in CD4+ T cells)” value in assay [1] was “significantly suppressed”. Further, the “cells differentiating into adipocytes / induction of MSCs having the ability to differentiate into adipocytes” value with FSTL1 is “decreased in number by the addition of #6-55 in a dose-dependent manner; also recorded: inhibited by 46-55 in an antibody dose-dependent manner; also recorded: inhibited by #6-55 in an antibody dose-dependent manner”. The weight loss entry in the assay on mouse melanoma B16-F10 (intraperitoneal 10 mg/kg on days 3 and 6) is “suppressive activity against weight loss was also exhibited”. Also, the subcutaneous tumor growth result in the assay with mouse melanoma B16-F10 (intraperitoneal 10 mg/kg on days 3 and 6, vs control antibody) is reported as “strongly suppressed”.
